One block for each binder: values may come before it.
Assays:
[1] = molecular target: T1, soluble CD16A (sCD16A) (UniProt P08637 17-208, limits assumed); assay: sandwich ELISA: sCD32B coated on the plate, normalised conditioned medium titrated, HRP-conjugated sCD16A as the probe; OD450
T1 construct: extracellular domain; Amine-coupled to the chip in SPR; biotin- or HRP-conjugated as the probe in the sandwich ELISAs; also called FcγRIIIA; sCD16A-Biotin
Experimental: The binding of diabody molecules comprising Fc domains and engineered disulfide bonds between the ‘lighter’ and ‘heavier’ polypeptide chains to sCD32B and sCD16A was assayed in a sandwich ELISA. Diabodies assayed were produced by 3 recombinant expression systems: expressing constructs 1 and 10, expressing constructs 1 and 9, and expressing constructs 11 and 12, respectively. sCD32B was used as the target protein. The secondary probe was HRP conjugated sCD16A. Binding of h3G8 was used as control.
(§1) ELISA: The binding of diabody molecules secreted into the medium was assayed by sandwich ELISA as described, supra. Unless indicated, CD32B was used to coat the plate, i.e., as the target protein, and HRP-conjugated CD16 was used as the probe.

[2] = molecular target: T1, soluble CD16A (sCD16A); assay: as above; remark: listed apart in the source
Experimental: The binding of diabody molecules comprising Fc domains to sCD32B and sCD16A was assayed in a sandwich ELISA. Diabodies assayed were produced by 4 recombinant expression systems: cotransfection of pMGX669+pMGX674, expressing constructs 1 and 6, respectively; cotransfection of pMGX669+pMGX678, expressing constructs 2 and 8, respectively; cotransfection of pMGX677+pMGX674, expressing constructs 7 and 6, respectively; and cotransfection of pMGX677+pMGX678, expressing constructs 7 and 8, respectively. sCD32B was used as the target protein. The secondary probe was HRP conjugated sCD16A.
as §1

[3] = molecular target: T2, murine CD32B (mCD32B) (murine, UniProt P08101 30-210, limits assumed); assay: sandwich ELISA: mCD32B coated on the plate, diabody preparation diluted 1:25 and 1:50, biotin-conjugated sCD16A as the probe; OD450
T2 construct: Coating protein of the sandwich ELISA for the construct 13 product
T2 sequence (looked up): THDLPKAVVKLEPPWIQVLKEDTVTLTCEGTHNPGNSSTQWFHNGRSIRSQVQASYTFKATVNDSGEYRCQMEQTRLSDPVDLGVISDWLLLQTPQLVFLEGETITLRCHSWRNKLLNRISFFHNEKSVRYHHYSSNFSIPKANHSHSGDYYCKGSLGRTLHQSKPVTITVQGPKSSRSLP
Experimental: (§2) The binding of diabody molecules derived from the polyprotein precursor molecule construct 13 (SEQ ID NO:97) to murine CD32B (mCD32B) and soluble CD16A (sCD16A) was assayed in a sandwich ELISA. mCD32B was used as the target protein. The secondary probe was biotin conjugated sCD16A.
(§3) ELISA: The binding of diabody molecules secreted into the medium was assayed by sandwich ELISA as described, supra. Murine CD32B was used to coat the plate, i.e., as the target protein, and HRP-conjugated CD16A was used as the probe for the product of the co-transfection of constructs 15 and 16. mCD32B was used as the target protein and biotin-conjugated CD16A was used as the probe for the recombinant system comprising construct 13.
(§4) Conditioned media from the recombinant expression systems comprising constructs 13 was analysed by sandwich ELISA. The ELISA assay tested the binding of the CBD for specificity to either or both of mCD32B and/or CD16 (FIG. 18). CD32B served as the target antigen and CD16A was used as the secondary probe.

[4] = molecular target: T1, soluble CD16A (sCD16A); assay: as above
Experimental: as §2, §3, §4

[5] = molecular target: T3, soluble CD32A (sCD32A) (UniProt P12318 34-217, limits assumed); assay: SPR (BIAcore), sCD32A (negative control receptor) immobilised, diabody injected for 60 s
T3 construct: extracellular domain; Negative control surface in SPR; also called control receptor
T3 sequence (looked up): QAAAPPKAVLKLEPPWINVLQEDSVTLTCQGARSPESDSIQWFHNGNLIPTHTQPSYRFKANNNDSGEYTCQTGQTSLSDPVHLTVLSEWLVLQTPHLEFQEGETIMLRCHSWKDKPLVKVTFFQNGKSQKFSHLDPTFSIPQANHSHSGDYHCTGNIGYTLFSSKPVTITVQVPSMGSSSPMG
Experimental: The binding of h2B6-h3G8 CBD, h2B6 CMD and h3G8 CMD to sCD16A, sCD32B, and sCD32A (negative control) was assayed by SPR analysis. h3G8 scFv was also tested as a control. (A) Binding to sCD16; (B) Binding to sCD32B and (C) Binding to sCD32A. Diabodies were injected at a concentration of 100 NM, and scFv at a concentration of 200 nM, over receptor surfaces at a flow rate of […] for 60 sec.

[6] = molecular target: T4, soluble CD32B (sCD32B) (UniProt P31994 43-217, limits assumed); assay: SPR (BIAcore 1000); receptor amine-coupled (~1000 RU), analyte 6.25-200 nM; units not printed (koff/kon implies nM)
T4 construct: extracellular domain; As immobilised on the BIAcore chip; also called FcγRIIB
T4 sequence (looked up): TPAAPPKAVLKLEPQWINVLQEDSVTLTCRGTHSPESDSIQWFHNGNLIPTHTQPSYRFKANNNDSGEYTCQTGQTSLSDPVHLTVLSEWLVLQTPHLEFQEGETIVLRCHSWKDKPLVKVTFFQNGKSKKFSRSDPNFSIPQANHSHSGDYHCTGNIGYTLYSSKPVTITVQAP
Experimental: (§5) The binding of h2B6-h3G8 CBD, h2B6 CMD and h3G8 CMD to sCD16A, and sCD32B was assayed by SPR analysis. h3G8 scFv was also tested as a control. (A) Binding of to h3G8 CMD sCD16A; (B) Binding of h2B6-h3G8 CBD to sCD16A; (C) Binding of h3G8 scFv to sCD16A; (D) Binding of h2B6 CMD to sCD32B; and (E) Binding of h2B6-h3G8 CBD to sCD32B. Diabodies were injected at concentrations of 6.25-200 nM over receptor surfaces at a flow rate of […] for 180 sec.
(§6) SPR analysis was also used to estimate the kinetic and equilibrium constants of the CMDs and h2B6-h3G8 CBD to sCD16 and/or sCD32B. Results were compared to the same constants calculated for an h3G8 scFV. FIGS. 7A-E show the graphical results of the SPR analysis. The kinetic on and off rates, as well as the equilibrium constant, calculated from the results depicted in FIG. 7 are provided in Table 13.

[7] = molecular target: T1, soluble CD16A (sCD16A); assay: as above
Experimental: as §5, §6

[8] = molecular target: T5, sCD32B-Ig (UniProt P31994 43-217); assay: sandwich ELISA: sCD32B-Ig coated on the plate, diabody titrated, detected with labelled sCD16A; OD450
T5 construct: extracellular domain; also called CD32B (ELISA coat); sCD32B (target protein of the sandwich ELISAs); not shown: Ig part of sCD32B-Ig is not described
T5 sequence (looked up): T4 sequence (looked up)
Experimental: The binding of h2B6-h3G8 CBD to sCD32B and sCD16A was assayed in a sandwich ELISA. sCD32B was used as the target protein. The secondary probe was HRP conjugated sCD16A. h3G8 CMD, which binds CD16A, was used as control.
ELISA: The binding of eluted and purified diabodies was characterized by ELISA assay, as described in 5.4.2. 50 ul/well of a 2 ug/ml solution of sCD32B-Ig was coated on 96-well Maxisorp plate in Carbonate buffer at 4° C. over night. The plate was washed three times with PBS-T (PBS, 0.1% Tween 20) and blocked by 0.5% BSA in PBS-T for 30 minutes at room temperature. Subsequently, h2B6-h3G8 CBD, h2B6 CMD, or h3G8 CMD were diluted into the blocking buffer in a serial of two-fold dilutions to generate a range of diabody concentrations, from 0.5 μg/ml to 0.001 μg/ml. The plate was then incubated at room temperature for 1 hour. After washing with PBS-T three times, 50 ul/well of 0.2 ug/ml sCD16A-Biotin was added to each well. The plate was again incubated at room temperature for 1 hour. After washing with PBS-T three times, 50 ul/well of a 1:5000 dilution of HRP conjugated streptavidin (Amersham Pharmacia Biotech) was used for detection. The HRP-streptavidin was allowed to incubate for 45 minutes at room temperature. […] The OD450 nm was read by using a 96-well plate reader and SOFTmax software, and results plotted using GraphPadPrism 3.03 software. […]

T1 sequence (P08637 17-208 limits assumed): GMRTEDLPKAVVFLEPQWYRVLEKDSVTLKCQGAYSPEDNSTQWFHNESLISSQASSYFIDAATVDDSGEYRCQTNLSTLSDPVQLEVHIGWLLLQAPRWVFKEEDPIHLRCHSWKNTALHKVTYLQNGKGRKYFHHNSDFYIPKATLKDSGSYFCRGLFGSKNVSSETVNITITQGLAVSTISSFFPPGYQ

binding result [1]: binds
B1: diabody of constructs 11 and 12, C-terminal hinge-Fc and engineered VL/VH cysteines (bispecific antibody, human IgG1)
chain 1: not shown
chain 2: DIVMTQSPDSLAVSLGERATINCKASQSVDFDGDSFMNWYQQKPGQPPKLLIYTTSNLESGVPDRFSGSGSGTDFTLTISSLQAEDVAVYYCQQSNEDPYTFGQGTKLEIKGGGSGGGGQVQLVQSGAEVKKPGASVKVSCKASGYTFTNYWIHWVRQAPGQCLEWIGVIDPSDTYPNYNKKFKGRVTMTVVVSTSTAYMELRSLRSDDTAVYYCARNGDSDYYSGMDYWGQGTTVTVSSFNRGEC
notes: construct 12 = Hu3G8VL-Hu2B6VH(G44C)-FNRGEC; About 150 kDa on the blot

binding result [2]: binds
B2: tetrameric IgG-like diabody of constructs 7 and 8 (pMGX0677+pMGX0678) (bispecific antibody)
chain 1: EIVLTQSPDFQSVTPKEKVTFTCRTSQSIGTNIHWYQQKPDQSPKLLIKEVSESISGVPSRFSGSGSGTDFTLTINSLEAEDAATYYCQQSNTWPFTFGGGTKVEIKGGGSGGGGQVTLRESGPALVKPTQTLTLTCTFSGFSLSTSGMGVGWIRQPPGKALEWLAHIWWDDDKRYNPALKSRLTISKDTSKNQVVLTMTNMDPVDTATYYCAQINPAWFAYWGQGTLVTVSSLGGCFNRGEC
chain 2: not shown
notes: heavier chain construct 8 (hu3G8VL-hu2B6VH-LGGC-hinge/Fc of human IgG1, A215V); Tested as normalized conditioned medium

binding result [3]: binds | binding result [4]: binds
B3: h2.4G2-h3G8 CBD produced from the polyprotein precursor construct 13 (bispecific antibody)
chain 1: DTVLTQSPASLAVSLGQRATISCKASQSVDFDGDSFMNWYQQKPGQPPKLLIYTTSNLESGIPARFSASGSGTDFTLNIHPVEEEDTATYYCQQSNEDPYTFGGGTKLEIKGGGSGGGGEVELVESGGGLVQPGRSLKLSCAASGFTFSDYYMAWVRQAPTTGLEWVASISYDGGDTHYRDSVKGRFTISRDNAKSSLYLQMDSLRSEDTATYYCATETTGIPTGVMDAWGQGVSVTVSSLGGCGGRAKR
chain 2: DVQMTQSPSNLAASPGESVSINCKASESISKYLAWYLQKPGKANKLLMYDGSTLQSGIPSRFSGSGSGTDFTLTIRSLEPEDFGLYYCQQHYEYPATFGSGTKLEIKGGGSGGGGQVTLKESGPGILQPSQTLSLTCSFSGFSLRTSGMGVGWIRQPSGKGLEWLAHIWWDDDKRYNPALKSRLTISKDTSSNQVFLKIASVDTADTATYYCAQINPAWFAYWGQGTLVTVSSLGGC
modifications: Interchain disulfide between the cysteines of the two LGGC sequences.
notes: In the assay it is the heterodimer of the two chains made by furin cleavage; also called pMGX0750 product; diabody molecules derived from the polyprotein precursor; copies: 1 + 1

binding result [1]: binds
B4: diabody of constructs 1 and 9 (pMGX0669+pMGX0719), N-terminal hinge/Fc (bispecific antibody, human IgG1)
chain 1: EIVLTQSPDFQSVTPKEKVTFTCRTSQSIGTNIHWYQQKPDQSPKLLIKEVSESISGVPSRFSGSGSGTDFTLTINSLEAEDAATYYCQQSNTWPFTFGGGTKVEIKGGGSGGGGQVTLRESGPALVKPTQTLTLTCTFSGFSLSTSGMGVGWIRQPPGKALEWLAHIWWDDDKRYNPALKSRLTISKDTSKNQVVLTMTNMDPVDTATYYCAQINPAWFAYWGQGTLVTVSSLGGC
chain 2: not shown
notes: Designed as tetravalent IgG-like diabody; Tested as normalized conditioned medium; also called constructs 9 and 1; constructs 9+1

binding result [1]: binds
B5: diabody of constructs 1 and 10 (pMGX0669+pMGX0718), N-terminal Fc (bispecific antibody)
chain 1: B4 chain 1
chain 2: not shown
notes: also called constructs 10 and 1; constructs 10+1; copies: 2 + 2

binding result [5]: no binding (tested: 100 nM) | Kd [6]: 15 nM | Kd [7]: 22.7 nM | EC50 (read off the curve) [8]: ~0.04 µg/mL
B6: h2B6-h3G8 covalent bispecific diabody (CBD) (bispecific antibody)
chain 1: B4 chain 1
chain 2: DIVMTQSPDSLAVSLGERATINCKASQSVDFDGDSFMNWYQQKPGQPPKLLIYTTSNLESGVPDRFSGSGSGTDFTLTISSLQAEDVAVYYCQQSNEDPYTFGQGTKLEIKGGGSGGGGQVQLVQSGAEVKKPGASVKVSCKASGYTFTNYWIHWVRQAPGQGLEWIGVIDPSDTYPNYNKKFKGRVTMTVVVSTSTAYMELRSLRSDDTAVYYCARNGDSDYYSGMDYWGQGTTVTVSSLGGC
notes: also called h2B6-h3G8 CBD; h2B6-h3G8 diabody

From patent publication US20070004909A1 (MacroGenics, published 2007)
